Reference: paper doi:10.1101/2020.08.05.236513

Molecular target: H-2 I-A^b class II MHC molecule (mouse (endogenous in LB27.4))
Test: radioligand binding

fold lower binding than the P. goldsteinii epitope: 3 fold
B1: 14-mer N-acetylated P. merdae β-hex peptide (peptide)
peptide: Ac-KWDYRESRVWVNDQ-NH2
